Test results as given in patent publication US20210244857A1, “PEPTIDE-COATED CALCIUM PHOSPHATE PARTICLES” (Cerapedics, Inc., priority 2016, published 2021).
Ends that are not written are not given here.

Columns and labels:
[1] = P-15 bound on final washed ABM particles, effect of pretreatment and freezing/drying technique; assay type: physicochemical
Protocol: Step 1: PRETREATMENT—ABM is pretreated in a Hypertonic (˜460 mM NaCl) HEPES buffer, pH 7.2, at a 10:1 ratio (ml solution to g ABM) for 24 hours. This solution is decanted off after 24 hours. This wash is repeated with fresh solution for 1 hour or until there is no pH change upon exposure to fresh solution. The final wash solution is decanted and the ABM is vacuum dried. The pretreatment step is performed with agitation of some kind (roller, rotation, etc.).
Step 2: COATING—A P-15 coating buffer (concentration depends on final desired P-15 coated on ABM) is made using hypertonic HEPES, pH 7.2. Pretreated ABM is coated using a 2:1 ratio (mL solution to g ABM) for 24 hours. This step is performed statically, with no agitation.
Step 3: WASHING—After the 24 hour coating step, the solution is removed by a rapid vacuum filtration process. The coated ABM is washed 6-12 times in a 10:1 ratio of solution to ABM using hypertonic HEPES buffer, pH 7.2. Vacuum filtration is performed between each wash to remove the solution. After the final wash, the washed ABM is then vacuum dried overnight.
ABM particles are produced as described in step 1 of Example 1, where step 1 further includes freezing and then drying the ABM particles subjected to hypertonic buffer.
Paired samples of pretreated ABM particles were freeze-dried (F/D) by two different methods, and a third sample was simply air dried (without any freezing). One sample was placed on a controlled ambient temperature F/D shelf and a vacuum was immediately pulled to initiate rapid evaporative freezing (FD-EC). The second sample was placed on an ambient F/D shelf and slowly frozen by ramped freezing (˜1-2° C. per minute). Once the sample was frozen the vacuum was initiated; this process is considered standard freeze-drying. The F/D process was used for both (a) the pretreatment step 1 and the washing (post-coating) step 3. The third samples was not frozen; the water was removed from the sample by air-drying at both drying steps. The following table indicates the amount of bound P15 on the final washed product. Table 4 indicates the amount of bound P-15 on the final washed ABM particles.
Paired samples of pretreated ABM particles were F/D by two different methods. One sample was placed on a controlled ambient temperature F/D shelf and a vacuum was immediately pulled to initiate rapid evaporative freezing. The second sample was placed on an uncooled shelf and a vacuum was immediately pulled to initiate evaporative cooling (vacuum oven drying). It should be noted that the rate of cooling is slower for this process due to the shelf temperature and the strength of vacuum. The F/D process was used for both (a) the pretreatment step 1 and the washing (post-coating) step 3. Table 5 indicates the amount of bound P-15 on the final washed ABM particles.
Four paired samples of pretreated ABM particles were F/D by two methods, alternately performed at the two separate drying steps. Two samples were F/D by vacuum oven drying after the pretreatment step and then dried by either the vacuum oven drying process or by FD-EC (placed on a controlled ambient temperature F/D shelf and a vacuum was immediately pulled to initiate rapid evaporative freezing) method after the P-15 coating step. The other two samples were dried by FD-EC after the pretreatment step and then dried by either the vacuum oven drying process or by FD-EC method after the P-15 coating Table 6 table indicates the amount of bound P-15 on the final washed ABM particles.
Paired samples of pretreated ABM particles were F/D by two different methods. One sample was rapidly frozen using a blast-freezer. The frozen sample was placed on a cold F/D shelf and a vacuum was immediately pulled. The second samples was placed on an uncooled shelf and a vacuum was immediately pulled to initiate evaporative cooling. The F/D process was used for both (a) the pretreatment step 1 and the washing (post-coating) step 3. […]

[2] = P-15 bound to ABM particles after pretreatment, coating and washing (ELISA), effect of osmolarity; assay type: physicochemical, Bovine; conditions: Hepes buffer pH 7.2
Protocol: (§1) ABM particles were incubated in a buffered solution that contained varying amounts of NaCl to modulate the final osmolarity. The ABM particles were incubated in the solutions for 18-24 hours, rinsed a second time in the same buffer, and dried. The pre-treated surface modified ABM particles were then incubated with P-15 dissolved in the same buffer as used during the pre-treatment step to coat the particles with P-15 peptide. Following the P-15 coating step, the ABM particles were washed repeatedly with the corresponding buffer solution. The amount of bound P-15 was determined using an ELISA test method. The different runs represent different preparations of the same ABM source.

[3] = as above; assay type: physicochemical; conditions: Hepes buffer pH 7.2, Porcine Cancellous Run #1
Protocol: as §1

GTPGPQGIAGQRGVV [P-15, cell adhesion (collagen mimetic) peptide coated onto ABM particles]
P-15 ng/g ABM ([1]; Table 4, Air drying at both drying steps, no freezing): 74 ng/g ABM
P-15 ng/g ABM ([1]; Table 4, Rapid freeze in freeze-dryer at pretreatment and post-coating steps): 1521 ng/g ABM
P-15 ng/g ABM ([1]; Table 4, Slow freeze in freeze-dryer at pretreatment and post-coating steps): 366 ng/g ABM
P-15 ng/g ABM ([1]; Table 5, Intermediate freeze in vacuum oven): 308 ng/g ABM
P-15 ng/g ABM ([1]; Table 5, Rapid freeze in freeze-dryer): 4201 ng/g ABM
P-15 ng/g ABM ([1]; Table 6, Pretreatment Step FD-EC, P-15 Coating Step FD-EC): 351 ng/g ABM
P-15 ng/g ABM ([1]; Table 6, Pretreatment Step FD-EC, P-15 Coating Step Vacuum oven): 261 ng/g ABM
P-15 ng/g ABM ([1]; Table 6, Pretreatment Step Vacuum oven, P-15 Coating Step FD-EC): 77 ng/g ABM
P-15 ng/g ABM ([1]; Table 6, Pretreatment Step Vacuum oven, P-15 Coating Step Vacuum oven): 72 ng/g ABM
P-15 ng/g ABM ([1]; Table 7, Blast-freeze followed by standard freeze-dryer): 260 ng/g ABM
P-15 ng/g ABM ([1]; Table 7, Intermediate freeze in vacuum oven): 80 ng/g ABM
P-15 Concentration Bound to ABM Particles ([2]; Hypertonic Solution (2.7%saline), Bovine Cancellous Run #1): 149 ng-P-15/g-ABM
P-15 Concentration Bound to ABM Particles ([2]; Hypertonic Solution (2.7%saline), Bovine Cancellous Run #2): 1024 ng-P-15/g-ABM
P-15 Concentration Bound to ABM Particles ([2]; Hypertonic Solution (2.7%saline), Bovine Cortical Run #1): 153 ng ng-P-15/g-ABM
P-15 Concentration Bound to ABM Particles ([2]; Hypertonic Solution (2.7%saline), Bovine Cortical Run #2): 105 ng-P-15/g-ABM
P-15 Concentration Bound to ABM Particles ([2]; Hypotonic Solution (0% saline), Bovine Cancellous Run #1): 68 ng-P-15/g-ABM
P-15 Concentration Bound to ABM Particles ([2]; Hypotonic Solution (0% saline), Bovine Cancellous Run #2): 651 ng-P-15/g-ABM
P-15 Concentration Bound to ABM Particles ([2]; Hypotonic Solution (0% saline), Bovine Cortical Run #1): 105 ng ng-P-15/g-ABM
P-15 Concentration Bound to ABM Particles ([2]; Hypotonic Solution (0% saline), Bovine Cortical Run #2): 64 ng-P-15/g-ABM
P-15 Concentration Bound to ABM Particles ([2]; Isotonic Solution (0.9% saline), Bovine Cancellous Run #1): 129 ng-P-15/g-ABM
P-15 Concentration Bound to ABM Particles ([2]; Isotonic Solution (0.9% saline), Bovine Cancellous Run #2): 611 ng-P-15/g-ABM
P-15 Concentration Bound to ABM Particles ([2]; Isotonic Solution (0.9% saline), Bovine Cortical Run #1): 116 ng ng-P-15/g-ABM
P-15 Concentration Bound to ABM Particles ([2]; Isotonic Solution (0.9% saline), Bovine Cortical Run #2): 66 ng-P-15/g-ABM
P-15 Concentration Bound to ABM Particles ([3]; Hypertonic Solution (2.7%saline)): 376 ng ng-P-15/g-ABM
P-15 Concentration Bound to ABM Particles ([3]; Hypotonic Solution (0% saline)): 231 ng ng-P-15/g-ABM
P-15 Concentration Bound to ABM Particles ([3]; Isotonic Solution (0.9% saline)): 283 ng ng-P-15/g-ABM
